# B1: TERF1-interacting nuclear factor 2 (Homo sapiens), Q9BSI4 (parent)
# chain: MATPLVAGPAALRFAAAASWQVVRGRCVEHFPRVLEFLRSLRAVAPGLVRYRHHERLCMGLKAKVVVELILQGRPWAQVLKALNHHFPESGPIVRDPKATKQDLRKILEAQETFYQQVKQLSEAPVDLASKLQELEQEYGEPFLAAMEKLLFEYLCQLEKALPTPQAQQLQDVLSWMQPGVSITSSLAWRQYGVDMGWLLPECSVTDSVNLAEPMEQNPPQQQRLALHNPLPKAKPGTHLPQGPSSRTHPEPLAGRHFNLAPLGRRRVQSQWASTRGGHKERPTVMLFPFRNLGSPTQVISKPESKEEHAIYTADLAMGTRAASTGKSKSPCQTLGGRALKENPVDLPATEQKENCLDCYMDPLRLSLLPPRARKPVCPPSLCSSVITIGDLVLDSDEEENGQGEGKESLENYQKTKFDTLIPTLCEYLPPSGHGAIPVSSCDCRDSSRPL
# B2: Pigment epithelium-derived factor (Homo sapiens), P36955 (parent)
# chain: MQALVLLLCIGALLGHSSCQNPASPPEEGSPDPDSTGALVEEEDPFFKVPVNKLAAAVSNFGYDLYRVRSSTSPTTNVLLSPLSVATALSALSLGAEQRTESIIHRALYYDLISSPDIHGTYKELLDTVTAPQKNLKSASRIVFEKKLRIKSSFVAPLEKSYGTRPRVLTGNPRLDLQEINNWVQAQMKGKLARSTKEIPDEISILLLGVAHFKGQWVTKFDSRKTSLEDFYLDEERTVRVPMMSDPKAVLRYGLDSDLSCKIAQLPLTGSMSIIFFLPLKVTQNLTLIEESLTSEFIHDIDRELKTVQAVLTVPKLKLSYEGEVTKSLQEMKLQSLFDSPDFSKITGKPIKLTQVEHRAGFEWNEDGAGTTPSPGLQPAHLTFPLDYHLNQPFIFVLRDTDTGALLFIGKILDPRGP
# partner: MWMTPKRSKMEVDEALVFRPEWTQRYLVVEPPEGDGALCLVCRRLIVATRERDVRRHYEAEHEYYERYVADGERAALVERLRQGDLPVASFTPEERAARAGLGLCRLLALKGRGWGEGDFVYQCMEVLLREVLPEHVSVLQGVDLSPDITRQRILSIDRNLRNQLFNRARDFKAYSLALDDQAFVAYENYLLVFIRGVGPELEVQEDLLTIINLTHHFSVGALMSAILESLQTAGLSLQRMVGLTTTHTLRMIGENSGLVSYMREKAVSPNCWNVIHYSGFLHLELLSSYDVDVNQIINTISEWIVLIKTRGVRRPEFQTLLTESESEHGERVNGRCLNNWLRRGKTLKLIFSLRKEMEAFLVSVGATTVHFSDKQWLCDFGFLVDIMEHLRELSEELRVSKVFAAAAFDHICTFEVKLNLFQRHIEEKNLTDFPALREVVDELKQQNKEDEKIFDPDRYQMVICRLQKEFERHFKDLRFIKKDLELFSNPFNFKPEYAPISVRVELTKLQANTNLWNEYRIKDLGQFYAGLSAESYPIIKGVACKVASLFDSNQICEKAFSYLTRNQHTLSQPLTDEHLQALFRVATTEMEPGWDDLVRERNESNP
# B3: ATP synthase mitochondrial F1 complex assembly factor 2 (Homo sapiens), Q8N5M1 (parent)
# chain: MWRSCLRLRDGGRRLLNRPAGGPSASMSPGPTIPSPARAYAPPTERKRFYQNVSITQGEGGFEINLDHRKLKTPQAKLFTVPSEALAIAVATEWDSQQDTIKYYTMHLTTLCNTSLDNPTQRNKDQLIRAAVKFLDTDTICYRVEEPETLVELQRNEWDPIIEWAEKRYGVEISSSTSIMGPSIPAKTREVLVSHLASYNTWALQGIEFVAAQLKSMVLTLGLIDLRLTVEQAVLLSRLEEEYQIQKWGNIEWAHDYELQELRARTAAGTLFIHLCSESTTVKHKLLKE
# partner: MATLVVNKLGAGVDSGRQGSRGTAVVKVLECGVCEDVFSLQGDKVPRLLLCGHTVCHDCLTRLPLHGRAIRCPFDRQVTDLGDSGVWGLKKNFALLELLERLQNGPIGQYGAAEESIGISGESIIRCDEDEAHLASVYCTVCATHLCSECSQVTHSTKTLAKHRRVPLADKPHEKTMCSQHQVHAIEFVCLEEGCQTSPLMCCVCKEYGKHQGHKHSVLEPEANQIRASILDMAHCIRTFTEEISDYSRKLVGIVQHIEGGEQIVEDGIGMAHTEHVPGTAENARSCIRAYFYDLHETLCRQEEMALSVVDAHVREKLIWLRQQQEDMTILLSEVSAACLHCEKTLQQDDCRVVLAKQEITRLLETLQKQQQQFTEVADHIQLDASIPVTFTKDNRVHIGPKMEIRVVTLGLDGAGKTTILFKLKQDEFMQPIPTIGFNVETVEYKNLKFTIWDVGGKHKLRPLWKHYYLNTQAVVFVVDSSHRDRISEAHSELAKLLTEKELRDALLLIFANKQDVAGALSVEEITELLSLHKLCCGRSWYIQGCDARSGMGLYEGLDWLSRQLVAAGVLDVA
# B4: U4/U6 small nuclear ribonucleoprotein Prp31 (Homo sapiens), Q8WWY3 (parent)
# chain: MSLADELLADLEEAAEEEEGGSYGEEEEEPAIEDVQEETQLDLSGDSVKTIAKLWDSKMFAEIMMKIEEYISKQAKASEVMGPVEAAPEYRVIVDANNLTVEIENELNIIHKFIRDKYSKRFPELESLVPNALDYIRTVKELGNSLDKCKNNENLQQILTNATIMVVSVTASTTQGQQLSEEELERLEEACDMALELNASKHRIYEYVESRMSFIAPNLSIIIGASTAAKIMGVAGGLTNLSKMPACNIMLLGAQRKTLSGFSSTSVLPHTGYIYHSDIVQSLPPDLRRKAARLVAAKCTLAARVDSFHESTEGKVGYELKDEIERKFDKWQEPPPVKQVKPLPAPLDGQRKKRGGRRYRKMKERLGLTEIRKQANRMSFGEIEEDAYQEDLGFSLGHLGKSGSGRVRQTQVNEATKARISKTLQRTLQKQSVVYGGKSTIRDRSSGTASSVAFTPLQGLEIVNPQAAEKKVAEANQKYFSSMAEFLKVKGEKSGLMST
# partner: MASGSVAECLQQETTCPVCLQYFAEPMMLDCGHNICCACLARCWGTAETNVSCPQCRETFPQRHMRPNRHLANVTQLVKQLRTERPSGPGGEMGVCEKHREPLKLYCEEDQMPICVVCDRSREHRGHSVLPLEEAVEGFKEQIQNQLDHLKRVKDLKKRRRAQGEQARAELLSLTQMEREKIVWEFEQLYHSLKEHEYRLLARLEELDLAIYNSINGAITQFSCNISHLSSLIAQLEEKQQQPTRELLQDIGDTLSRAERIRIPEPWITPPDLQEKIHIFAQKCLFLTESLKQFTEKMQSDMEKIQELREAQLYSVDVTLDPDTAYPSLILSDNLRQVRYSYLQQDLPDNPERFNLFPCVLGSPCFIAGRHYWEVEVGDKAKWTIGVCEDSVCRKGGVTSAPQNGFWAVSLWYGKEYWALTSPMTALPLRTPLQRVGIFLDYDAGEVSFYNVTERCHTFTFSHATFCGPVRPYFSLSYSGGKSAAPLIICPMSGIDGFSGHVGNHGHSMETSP
# B5: Progranulin (Homo sapiens), P28799 (parent)
# chain: MWTLVSWVALTAGLVAGTRCPDGQFCPVACCLDPGGASYSCCRPLLDKWPTTLSRHLGGPCQVDAHCSAGHSCIFTVSGTSSCCPFPEAVACGDGHHCCPRGFHCSADGRSCFQRSGNNSVGAIQCPDSQFECPDFSTCCVMVDGSWGCCPMPQASCCEDRVHCCPHGAFCDLVHTRCITPTGTHPLAKKLPAQRTNRAVALSSSVMCPDARSRCPDGSTCCELPSGKYGCCPMPNATCCSDHLHCCPQDTVCDLIQSKCLSKENATTDLLTKLPAHTVGDVKCDMEVSCPDGYTCCRLQSGAWGCCPFTQAVCCEDHIHCCPAGFTCDTQKGTCEQGPHQVPWMEKAPAHLSLPDPQALKRDVPCDNVSSCPSSDTCCQLTSGEWGCCPIPEAVCCSDHQHCCPQGYTCVAEGQCQRGSEIVAGLEKMPARRASLSHPRDIGCDQHTSCPVGQTCCPSLGGSWACCQLPHAVCCEDRQHCCPAGYTCNVKARSCEKEVVSAQPATFLARSPHVGVKDVECGEGHFCHDNQTCCRDNRQGWACCPYRQGVCCADRRHCCPAGFRCAARGTKCLRREAPRWDAPLRDPALRQLL
# Variants of: B1
# Conditions: with acd_human ACD
row,Variant,effect of a mutation on the interaction
1,P236S,disrupting interaction strength
2,E281K,with no effect

# Results, then the variant that gave them:
row,effect of a mutation on the interaction,Variant
1,with no effect,S245Y
2,with no effect,G237D

# Variants of: B2
# Conditions: with epmip_human EPM2AIP1, Q7L775
row,Variant,effect of a mutation on the interaction
1,T72M,with no effect

# Variants of: B3
# Conditions: with tri23_human TRIM23, P36406
row,Variant,effect of a mutation on the interaction
1,W94R,disrupting interaction strength

# Variants of: B4
# Conditions: with tri27_human TRIM27, P14373
row,Variant,effect of a mutation on the interaction
1,L107V,with no effect

# Variants of: B5
# Conditions: with hxa1_human HOXA1, P49639
# hxa1_human HOXA1, P49639, sequence (P49639 whole entry): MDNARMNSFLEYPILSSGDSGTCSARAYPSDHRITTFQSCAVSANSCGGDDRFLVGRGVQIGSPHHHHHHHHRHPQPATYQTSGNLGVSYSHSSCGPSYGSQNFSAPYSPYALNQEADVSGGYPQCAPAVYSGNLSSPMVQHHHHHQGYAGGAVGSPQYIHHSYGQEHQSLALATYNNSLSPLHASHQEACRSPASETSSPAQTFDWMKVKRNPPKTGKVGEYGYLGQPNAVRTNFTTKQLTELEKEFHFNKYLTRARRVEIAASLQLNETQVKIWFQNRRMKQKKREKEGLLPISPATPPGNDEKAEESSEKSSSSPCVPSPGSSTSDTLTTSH
row,Variant,effect of a mutation on the interaction
1,P248L,with no effect

# Variants of: B5
# Conditions: with ARFGAP1, Q8N6T3-3
# ARFGAP1, Q8N6T3-3, sequence (Q8N6T3 other isoform, or with tags, fused parts or gaps): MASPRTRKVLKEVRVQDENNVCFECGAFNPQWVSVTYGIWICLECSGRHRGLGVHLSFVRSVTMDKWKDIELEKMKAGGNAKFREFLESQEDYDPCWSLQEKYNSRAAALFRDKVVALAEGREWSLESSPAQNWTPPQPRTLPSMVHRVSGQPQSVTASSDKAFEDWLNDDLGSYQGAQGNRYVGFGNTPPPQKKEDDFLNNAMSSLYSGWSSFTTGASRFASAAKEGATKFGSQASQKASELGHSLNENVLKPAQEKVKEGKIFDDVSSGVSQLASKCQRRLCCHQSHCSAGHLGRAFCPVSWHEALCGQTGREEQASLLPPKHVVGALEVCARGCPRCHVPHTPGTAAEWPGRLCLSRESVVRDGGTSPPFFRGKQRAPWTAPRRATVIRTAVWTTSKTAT
row,Variant,effect of a mutation on the interaction
1,P248L,with no effect

# Variants of: B5
# Conditions: with sgta_human SGTA
row,Variant,effect of a mutation on the interaction
1,P248L,with no effect

# Variants of: B5
# Conditions: with otx1_human OTX1, P32242
# otx1_human OTX1, P32242, sequence (P32242 whole entry): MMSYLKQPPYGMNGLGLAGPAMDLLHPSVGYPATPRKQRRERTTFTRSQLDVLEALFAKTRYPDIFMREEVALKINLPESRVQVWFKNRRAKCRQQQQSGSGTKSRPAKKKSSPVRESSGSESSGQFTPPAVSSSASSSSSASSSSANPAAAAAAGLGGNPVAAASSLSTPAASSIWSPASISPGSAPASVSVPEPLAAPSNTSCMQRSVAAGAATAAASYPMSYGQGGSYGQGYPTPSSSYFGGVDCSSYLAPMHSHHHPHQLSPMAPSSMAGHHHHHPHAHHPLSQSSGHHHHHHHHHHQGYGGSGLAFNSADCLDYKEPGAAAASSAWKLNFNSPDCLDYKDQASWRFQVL
row,Variant,effect of a mutation on the interaction
1,P248L,with no effect

# Variants of: B5
# Conditions: with ccd33_human CCDC33, Q8N5R6
# ccd33_human CCDC33, Q8N5R6, sequence (Q8N5R6 whole entry): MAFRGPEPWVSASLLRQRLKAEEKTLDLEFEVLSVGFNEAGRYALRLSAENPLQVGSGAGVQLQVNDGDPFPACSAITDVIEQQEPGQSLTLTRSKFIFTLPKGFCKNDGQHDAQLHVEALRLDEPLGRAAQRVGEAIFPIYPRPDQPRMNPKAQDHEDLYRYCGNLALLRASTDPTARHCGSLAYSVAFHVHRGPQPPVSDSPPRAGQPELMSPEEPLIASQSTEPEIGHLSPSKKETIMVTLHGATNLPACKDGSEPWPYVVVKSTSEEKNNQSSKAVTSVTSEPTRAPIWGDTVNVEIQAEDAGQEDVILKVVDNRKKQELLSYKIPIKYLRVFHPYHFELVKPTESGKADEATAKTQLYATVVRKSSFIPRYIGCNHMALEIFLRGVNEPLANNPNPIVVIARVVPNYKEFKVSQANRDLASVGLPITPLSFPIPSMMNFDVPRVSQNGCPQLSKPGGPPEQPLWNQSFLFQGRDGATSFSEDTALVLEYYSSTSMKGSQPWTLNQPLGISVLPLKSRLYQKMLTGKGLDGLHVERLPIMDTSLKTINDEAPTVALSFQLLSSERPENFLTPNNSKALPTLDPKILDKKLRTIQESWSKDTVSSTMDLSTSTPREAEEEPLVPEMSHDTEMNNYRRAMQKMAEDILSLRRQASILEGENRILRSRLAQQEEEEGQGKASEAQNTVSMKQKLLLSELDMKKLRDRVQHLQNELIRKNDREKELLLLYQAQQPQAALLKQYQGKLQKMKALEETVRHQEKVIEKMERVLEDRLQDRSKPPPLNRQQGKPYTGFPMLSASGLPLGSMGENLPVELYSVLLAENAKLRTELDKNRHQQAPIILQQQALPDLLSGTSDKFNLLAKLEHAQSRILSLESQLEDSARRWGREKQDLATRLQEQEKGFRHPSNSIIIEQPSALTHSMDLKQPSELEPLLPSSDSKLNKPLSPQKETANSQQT
row,Variant,effect of a mutation on the interaction
1,P248L,with no effect

# Source: IntAct's records for PubMed 25910212
